# B1: RSV F HRA peptide, RSV residues 160-207 (peptide)
# peptide: LEGEVNKIKSALLSTNKAVVSLSNGVSVLTSKVLDLKNYIDKQLLPIV
# Molecular target: RSV F uncleavable ectodomain (Delp21Furx, the ectodomain polypeptide) (respiratory syncytial virus)
# Assay: Size exclusion chromatography of the mixture of RSV F monomer and HRA peptide; monomer alone ~75 mls, reference trimer (FP deletion) ~65 mls
binder,measurement,value
B1,Retention Volume Superdex P200,60 mL

# — patent publication US20140141037A1
